This is an account of results in article PMC11382572, “Structural and kinetic insights into the stereospecific oxidation of R-2,3-dihydroxypropanesulfonate by DHPS-3-dehydrogenase from Cupriavidus pinatubonensis” (Chemical Science, 2024).

Data set [1] relates to O=S(=O)(O)C[C@H](O)CO. In words: Michaelis-Menten kinetics (apparent KM). The settings on record: Zn2+, NAD+. It is filed as biochemical, Cupriavidus pinatubonensis.
Data set [2] relates to O=S(=O)(O)C[C@H](O)CO. The data set is described as follows: purified protein. It counts as biochemical, Cupriavidus pinatubonensis. Conditions: Zn2+.

As for “DHPS-3-dehydrogenase (CpHpsN) (Cupriavidus pinatubonensis JMP134; E318A)”, in the data set on O=S(=O)(O)C[C@H](O)CO [1], the Michaelis-Menten constant (Km) (commonly the concentration of substrate that gives half-maximal velocity) is 2800 ± 300 µM and the specificity constant (kcat/Km) (as a rule, the turnover number divided by the Michaelis constant) amounted to 1.8 M⁻¹ s⁻¹.

As for “DHPS-3-dehydrogenase (CpHpsN) (Cupriavidus pinatubonensis JMP134; H319A)”, the Michaelis-Menten constant (Km) with O=S(=O)(O)C[C@H](O)CO [2] amounted to 1200 ± 300 µM. The kcat/Km in the data set on O=S(=O)(O)C[C@H](O)CO [2] (NADH active site, sulfonate and secondary hydroxyl groups participate in octahedral zinc coordination, occupancy […]) is 3.1 M⁻¹ s⁻¹.
